Experimental data as given in article PMC3336104 (Molecular Cell, 2012).

Biological target: Glmn, purified, His6-MBP removed (human, UniProt Q92990 1-594)
Assay: SEC

Glmn, purified, His6-MBP removed, sequence (Q92990 whole entry): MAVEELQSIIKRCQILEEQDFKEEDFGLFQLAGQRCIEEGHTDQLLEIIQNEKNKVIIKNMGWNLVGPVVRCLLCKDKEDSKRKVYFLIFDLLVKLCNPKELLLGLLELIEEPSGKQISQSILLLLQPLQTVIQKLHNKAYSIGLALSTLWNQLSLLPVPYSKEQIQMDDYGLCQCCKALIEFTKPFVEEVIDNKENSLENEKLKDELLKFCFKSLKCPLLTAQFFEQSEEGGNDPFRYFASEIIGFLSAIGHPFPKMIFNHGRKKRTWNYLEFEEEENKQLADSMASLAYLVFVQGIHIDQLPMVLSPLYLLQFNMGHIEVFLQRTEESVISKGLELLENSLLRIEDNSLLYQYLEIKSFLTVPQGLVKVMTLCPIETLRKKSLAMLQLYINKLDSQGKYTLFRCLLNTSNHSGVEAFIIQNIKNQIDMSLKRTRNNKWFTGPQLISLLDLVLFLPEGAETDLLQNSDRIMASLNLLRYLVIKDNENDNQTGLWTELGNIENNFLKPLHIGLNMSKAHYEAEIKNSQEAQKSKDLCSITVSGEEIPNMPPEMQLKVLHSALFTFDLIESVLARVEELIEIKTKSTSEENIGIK

binding result: binds
B1: Rbx1^RING, GST removed (domain or fragment)
chain: not shown
